How the values were obtained:
[1] = tested on: xylose isomerase activity; assay: Heterologous xylose isomerase expression in engineered yeast (active yes/no); details: xylose isomerase of the donor organism expressed in engineered yeast (S. cerevisiae)
xylose = assay: In vitro xylose isomerase activity assay on soluble whole cell extract (sorbitol dehydrogenase/NADH coupled, A340; Km, specific activity); format: biochemical, Saccharomyces cerevisiae
Method: […] Louis, Mo.), and about 2 U sorbitol dehydrogenase (Roche) at about 30° C. […] A Beckman DU-800 was utilized with an Enzyme Mechanism software package (Beckman Coulter, Inc.), and the change in the A340 was monitored for 2-3 minutes.
(§1) Approximately 20 μg of soluble whole cell extract from each transformed cell line, prepared using Y-PER plus reagent as described above, was incubated in a solution containing about 100 mM Tris, pH 7.5, 10 mM MgCl ? 2, 0.15 mM NADH (Sigma, St. Louis, Mo.), and 2 U Sorbitol Dehydrogenase (SDH) (Roche, Indianapolis, Ind.) at about 30° C. […] A Beckman DU-800 spectrophotometer was utilized with an Enzyme Mechanism software package (Beckman Coulter, Inc, Brea, Calif.), and the change in the A340 was monitored for 2-3 minutes.
as §1, with “line was” for “line,”, “above” for “above,”, “MgCl2,” for “MgCl ? 2,”, “sorbitol dehydrogenase” for “Sorbitol Dehydrogenase”
as §1, with “line was” for “line,”, “above” for “above,”

[2] = Western blot (anti-6xHis) of EDD and EDA expression in yeast, soluble/insoluble extract; design: species or system Saccharomyces cerevisiae; details: C-terminal HIS tag, S. cerevisiae BY4742; total crude and solubilized extract; FIGS. 13A and 13B
Method: Transformation of the p426GPD plasmids containing an edd or an eda variant gene into yeast strain BY4742 was accomplished using the Zymo Research frozen-EZ yeast transformation II kit according to the manufacturer's protocol. The transformed BY4742 cells were selected by growth on a synthetic dextrose medium (SD) (0.67% yeast nitrogen base-2% dextrose) containing complete amino acids minus uracil (Krackeler Scientific Inc). Plates were incubated at about 30° C. for about 48 hours. Transformant colonies for each edd and eda variant were inoculated onto 5 ml of SD minus uracil medium and cells were grown at about 30° C. and shaken at about 250 rpm for about 24 hours. Cells were harvested by centrifugation at 1000×g for about 5 minutes, after which protein crude extract was prepared with Y-PER Plus (Thermo Scientific) according to the manufacturer's instructions. Whole cell extract protein concentrations were determined using the Coomassie Plus Protein Assay (Thermo Scientific) according to the manufacturer's directions. For each edd and eda variant His-tagged construct, about 10 μg of soluble and insoluble fractions were loaded on 4-12% NuPAGE Novex Bis-Tris protein gels (Invitrogen) and proteins were analyzed by western using anti-(H is)6 (SEQ ID NO: 138) mouse monoclonal antibody (Abcam) and HRP-conjugated secondary antibody (Abcam). […]

6-phosphogluconate = assay: EDA activity assay: S. cerevisiae EDA extracts with saturating E. coli EDD extract, LDH/NADH coupled; format: biochemical, Saccharomyces cerevisiae
Method: EDA extracts were prepared using the following protocol.
Grow 5 ml LB-Kan preps of BF1055 (BL21/DE3 with pET26b empty vector) and BF1706 (BL21DE3 with pET26b+E. coli EDD).
Grow 50 ml LB-Kan prep of BF1055, 2% (v/v) inoculate.
Grow 50 ml prep of BF1706 using Novagen's Overnight Express (46.45 ml LB-Kan, 1 ml solution 1, 2.5 ml solution 2, 50 μl solution 3, 5 μl of 1M MnCl2, 50 μl of 0.5 M FeCl2), 2% (v/v) inoculate.
Inoculate to OD600 of 0.2.
EDD extractions (adapted from Chemyan et al, Protein Science 16:2368-2377, 2007): • 1) Pellet cells in 50 ml conical tubes, 4° C., 3,000 rpm, 10 mins, discard supernatant. • 2) Resuspend in 2 ml degassed PDGH buffer (20 mM MES pH 6.5, 30 mM NaCl, 5 mM MnCl2, 0.5 mM FeCl2, 10 mM 2-mercaptoethanol, 10 mM cysteine, sparged with nitrogen gas). Move to hungate tube. • 3) Add 0.1% Triton X-100, 10 ng/ml DNase, 10 μg/ml PMSF, 10 μg/ml TAME (Nα-(p-toluene sulfonyl)-L-arginine methyl ester), 100 μg/ml lysozyme. • 4) Sparge hungate tube with nitrogen gas, cap and seal. […]
Each reaction contains 50 mM Tris-HCl, pH 7, 10 mM MgCl2, 0.15 mM NADH, 15 μg LDH, saturating amounts of EDD determined empirically (usually ˜100 μg), 1-50 μg EDA (depending on level of activity), and 1 mM 6-phosphogluconate. Reactions are started by the addition of 6-phosphogluconate and monitored for 5 mins at 30° C.

Piromyces: xylose isomerase from Piromyces strain E2 (SEQ ID NO: 35)
Active? (yes/no) [1]: Yes
Specific Activity (xylose; soluble whole cell extract, pH 7.5, 30° C.): 2.02 µmol/min/mg

B1: PAO1 EDD: phosphogluconate dehydratase (edd) from P. aeruginosa PAO1 (SEQ ID NO: 70) (protein, listed as Pseudomonas aeruginosa)
chain: MHPRVLEVTRRIQARSAATRQRYLEMVRAAASKGPHRGTLPCGNLAHGVAACGESDKQTLRLMNQANVAIVSAYNDMLSAHQPFERFPGLIKQALHEIGSVGQFAGGVPAMCDGVTQGEPGMELSLASRDVIAMSTAIALSHNMFDAALCLGVCDKIVPGLLIGSLRFGHLPTVFVPAGPMPTGISNKEKAAVRQLFAEGKATREELLASEMASYHAPGTCTFYGTANTNQLLVEVMGLHLPGASFVNPNTPLRDELTREAARQASRLTPENGNYVPMAEIVDEKAIVNSVVALLATGGSTNHTLHLLAIAQAAGIQLTWQDMSELSHVVPTLARIYPNGQADINHFQAAGGMSFLIRQLLDGGLLHEDVQTVAGPGLRRYTREPFLEDGRLVWREGPERSLDEAILRPLDKPFSAEGGLRLMEGNLGRGVMKVSAVAPEHQVVEAPVRIFHDQASLAAAFKAGELERDLVAVVRFQGPRANGMPELHKLTPFLGVLQDRGFKVALVTDGRMSGASGKVPAAIHVSPEAIAGGPLARLRDGDRVRVDGVNGELRVLVDDAEWQARSLEPAPQDGNLGCGRELFAFMRNAMSSAEEGACSFTESLNGWR
expression and solubility (western) [2]: expressed and soluble

B2: E. coli EDA: 2-keto-3-deoxygluconate-6-phosphate aldolase (eda) from E. coli expressed in yeast (protein, UniProt P0A955 1-213, looked up)
KHG/KDPG aldolase: MKNWKTSAESILTTGPVVPVIVVKKLEHAVPMAKALVAGGVRVLEVTLRTECAVDAIRAIAKEVPEAIVGAGTVLNPQQLAEVTEAGAQFAISPGLTEPLLKAATEGTIPLIPGISTVSELMLGMDYGLKEFKFFPAEANGGVKALQAIAGPFSQVRFCPTGGISPANYRDYLALKSVLCIGGSWLVPADALEAGDYDRITKLAREAVEGAKL
EDA activity relative to the EDA from P. aeruginosa (6-phosphogluconate; EDA expressed in S. cerevisiae, saturating E. coli EDD): approximately 16 fold
EDA activity ranking (6-phosphogluconate; repeat: 100 μg EDD and 25 μg EDA cell lysates (5 μg E. coli EDA), FIG. 24): most active
expression and solubility (western) [2]: expressed and soluble

B3: R. flavefaciens, FD-1 XI: xylose isomerase from R. flavefaciens FD-1 (SEQ ID NO: 110) expressed in S. cerevisiae (protein, listed as Ruminococcus flavefaciens)
chain: MEFFKNISKIPYEGKDSTNPLAFKYYNPDEVIDGKKMRDIMKFALSWWHTMGGDGTDMFGCGTADKTWGENDPAARAKAKVDAAFEIMQKLSIDYFCFHDRDLSPEYGSLKDTNAQLDIVTDYIKAKQAETGLKCLWGTAKCFDHPRFMHGAGTSPSADVFAFSAAQIKKALESTVKLGGTGYVFWGGREGYETLLNTNMGLELDNMARLMKMAVEYGRSIGFKGDFYIEPKPKEPTKHQYDFDTATVLGFLRKYGLDKDFKMNIEANHATLAQHTFQHELCVARTNGAFGSIDANQGDPLLGWDTDQFPTNIYDTTMCMYEVIKAGGFTNGGLNFDAKARRGSFTPEDIFYSYIAGMDAFALGYKAASKLIADGRIDSFISDRYASWSEGIGLDIISGKADMAALEKYALEKGEVTDSISSGRQELLESIVNNVIFNL
activity (slope) at saturating xylose (xylose; 100 μg total soluble crude extract, 500 mM xylose, FIG. 25): highest activity of the candidates tested
specific activity relative to native XI control (xylose; xylose concentrations between 40 and 500 nM): greater than 2 fold
